From article doi:10.1101/2024.11.05.622117 (bioRxiv, 2024)

Biological target: the molecule itself

Does IRIDIRIDIRG [Peptide IRIDIRIDIRG (SID)] bind?
Result: binds
